From the supplement of paper PMC5998384

Legend:
[1] = tested on: HeLa Kyoto; assay: solubility in G1/S (NP-40 vs SDS abundance) (log2 ratio); higher = more soluble; conditions: cell cycle stage: G1/S
[2] = tested on: HeLa Kyoto; assay: solubility change mitosis vs G1/S (difference of NP-40 vs SDS log2 ratios) (log2 ratio difference); higher = more soluble in mitosis
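For solubility change mitosis vs G1/S (difference of NP-40 vs SDS log2 ratios) in this document: synchronized HeLa Kyoto cells (double thymidine block for G1/S, nocodazole release for mitosis), protein amounts in NP-40 versus SDS lysates quantified by mass spectrometry, three biological replicates.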
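For solubility in G1/S (NP-40 vs SDS abundance) in this document: HeLa Kyoto cells arrested at G1/S by double thymidine block, proteins quantified by TMT10plex mass spectrometry in mild NP-40 versus SDS extracts, three biological replicates.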

DNLZ, sequence (chain, as listed by the source): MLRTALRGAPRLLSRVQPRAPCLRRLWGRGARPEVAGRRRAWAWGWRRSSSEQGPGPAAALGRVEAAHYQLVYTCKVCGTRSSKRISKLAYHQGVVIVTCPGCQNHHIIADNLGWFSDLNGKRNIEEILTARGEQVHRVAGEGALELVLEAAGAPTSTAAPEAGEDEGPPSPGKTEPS

Row | Substance | solubility in G1/S (log2) [1] | solubility change mitosis (log2) [2]
1 | MLLGLAAMELKVWVDGIQRVVCGVSEQTTCQEVVIALAQAIGQTGRFVLVQRLREKERQLLPQECPVGAQATCGQFASDVQFVLRRTGPSLAGRPSSDSCPPPERCLIRASLPVKPRAALGCEPRKTLTPEPAPSLSRPGPAAPVTPTPGCCTDLRGLELRVQRNAEELGHEAFWEQELRREQAREREGQARLQALSAATAEHAARLQALDAQARALEAELQLAAEAPGPPSPMASATERLHQDLAVQERQSAEVQGSLALVSRALEAAERALQAQAQELEELNRELRQCNLQQFIQQTGAALPPPPRPDRGPPGTQGPLPPAREESLLGAPSESHAGAQPRPRGGPHDAELLEVAAAPAPEWCPLAAQPQAL [RASSF7] | 0.299 | 0.0497
2 | MAELRQVPGGRETPQGELRPEVVEDEVPRSPVAEEPGGGGSSSSEAKLSPREEEELDPRIQEELEHLNQASEEINQVELQLDEARTTYRRILQESARKLNTQGSHLGSCIEKARPYYEARRLAKEAQQETQKAALRYERAVSMHNAAREMVFVAEQGVMADKNRLDPTWQEMLNHATCKVNEAEEERLRGEREHQRVTRLCQQAEARVQALQKTLRRAIGKSRPYFELKAQFSQILEEHKAKVTELEQQVAQAKTRYSVALRNLEQISEQIHARRRGGLPPHPLGPRRSSPVGAEAGPEDMEDGDSGIEGAEGAGLEEGSSLGPGPAPDTDTLSLLSLRTVASDLQKCDSVEHLRGLSDHVSLDGQELGTRSGGRRGSDGGARGGRHQRSVSL [SH3BP5L] | 0.128 | -0.0461
3 | MADSERLSAPGCWAACTNFSRTRKGILLFAEIILCLVILICFSASTPGYSSLSVIEMILAAIFFVVYMCDLHTKIPFINWPWSDFFRTLIAAILYLITSIVVLVERGNHSKIVAGVLGLIATCLFGYDAYVTFPVRQPRHTAAPTDPADGPV [PLP2] | -0.0955 | -0.163
4 | SYNM | -0.94 | 0.752
5 | MSSPPEGKLETKAGHPPAVKAGGMRIVQKHPHTGDTKEEKDKDDQEWESPSPPKPTVFISGVIARGDKDFPPAAAQVAHQKPHASMDKHPSPRTQHIQQPRK [DAP] | -0.1 | 0.309
6 | MSWIPFKIGQPKKQIVPKTVERDFEREYGKLQQLEEQTRRLQKDMKKSTDADLAMSKSAVKISLDLLSNPLCEQDQDLLNMVTALDTAMKRMDAFNQEKVNQIQKTVIEPLKKFGSVFPSLNMAVKRREQALQDYRRLQAKVEKYEEKEKTGPVLAKLHQAREELRPVREDFEAKNRQLLEEMPRFYGSRLDYFQPSFESLIRAQVVYYSEMHKIFGDLSHQLDQPGHSDEQRERENEAKLSELRALSIVADD [BIN3] | 0.418 | 0.0471
7 | RLF | -0.887 | 0.617
8 | MAAAFRKAAKSRQREHRERSQPGFRKHLGLLEKKKDYKLRADDYRKKQEYLKALRKKALEKNPDEFYYKMTRVKLQDGVHIIKETKEEVTPEQLKLMRTQDVKYIEMKRVAEAKKIERLKSELHLLDFQGKQQNKHVFFFDTKKEVEQFDVATHLQTAPELVDRVFNRPRIETLQKEKVKGVTNQTGLKRIAKERQKQYNCLTQRIEREKKLFVIAQKIQTRKDLMDKTQKVKVKKETVNSPAIYKFQSRRKR [UTP11L] | -2.71 | 1.5
9 | DNLZ | -0.145 | 0.242
10 | MAALTPRKRKQDSLKCDSLLHFTENLFPSPNKKHCFYQNSDKNEENLHCSQQEHFVLSALKTTEINRLPSANQGSPFKSALSTVSFYNQNKWYLNPLERKLIKESRSTCLKTNDEDKSFPIVTEKMQGKPVCSKKNNKKPQKSLTAKYQPKYRHIKPVSRNSRNSKQNRVIYKPIVEKENNCHSAENNSNAPRVLSQKIKPQVTLQGGAAFFVRKKSSLRKSSLENEPSLGRTQKSKSEVIEDSDVETVSEKKTFATRQVPKCLVLEEKLKIGLLSASSKNKEKLIKDSSDDRVSSKEHKVDKNEAFSSEDSLGENKTISPKSTVYPIFSASSVNSKRSLGEEQFSVGSVNFMKQTNIQKNTNTRDTSKKTKDQLIIDAGQKHFGATVCKSCGMIYTASNPEDEMQHVQHHHRFLEGIKYVGWKKERVVAEFWDGKIVLVLPHDPSFAIKKVEDVQELVDNELGFQQVVPKCPNKIKTFLFISDEKRVVGCLIAEPIKQAFRVLSEPIGPESPSSTECPRAWQCSDVPEPAVCGISRIWVFRLKRRKRIARRLVDTLRNCFMFGCFLSTDEIAFSDPTPDGKLFATKYCNTPNFLVYNFNS [ESCO2] | -0.994 | 0.997
11 | MQRRSRGINTGLILLLSQIFHVGINNIPPVTLATLALNIWFFLNPQKPLYSSCLSVEKCYQQKDWQRLLLSPLHHADDWHLYFNMASMLWKGINLERRLGSRWFAYVITAFSVLTGVVYLLLQFAVAEFMDEPDFKRSCAVGFSGVLFALKVLNNHYCPGGFVNILGFPVPNRFACWVELVAIHLFSPGTSFAGHLAGILVGLMYTQGPLKKIMEACAGGFSSSVGYPGRQYYFNSSGSSGYQDYYPHGRPDHYEEAPRNYDTYTAGLSEEEQLERALQASLWDRGNTRNSPPPYGFHLSPEEMRRQRLHRFDSQ [RHBDD1] | -0.291 | -0.0234
12 | MENCSAASTFLTDSLELELGTEWCKPPYFSCAVDNRGGGKHFSGESYLCSGALKRLILNLDPLPTNFEEDTLEIFGIQWVTETALVNSSRELFHLFRQQLYNLETLLQSSCDFGKVSTLHCKADNIRQQCVLFLHYVKVFIFRYLKVQNAESHVPVHPYEALEAQLPSVLIDELHGLLLYIGHLSELPSVNIGAFVNQNQIKLFPPSWHLLHLHLDIHWLVLEILYMLGEKLKQVVYGHQFMNLASDNLTNISLFEEHCETLLCDLISLSLNRYDKVRSSESLMSDQCPCLCIKELWVLLIHLLDHRSKWFVSESFWNWLNKLLKTLLEKSSDRRRSSMPVIQSRDPLGFSWWIITHVASFYKFDRHGVPDEMRKVESNWNFVEELLKKSISVQGVILEEQLRMYLHCCLTLCDFWEPNIAIVTILWEYYSKNLNSSFSISWLPFKGLANTMKSPLSMLEMVKTCCCDKQDQELYKSSSSYTIFLCILAKVVKKAMKSNGPHPWKQVKGRIYSKFHQKRMEELTEVGLQNFFSLFLLLAAVAEVEDVASHVLDLLNFLKPAFVTSQRALIWKGHMAFLLMYAQKNLDIGVLAEKFSCAFREKAKEFLVSKNEEMVQRQTIWTLLSIYIDGVQEVFETSYCLYPSHEKLLNDGFSMLLRACRESELRTVLSFLQAVLARIRSMHQQLCQELQRDNVDLFVQSSLSAKERHLAAVASALWRHFFSFLKSQRMSQVVPFSQLADAAADFTLLAMDMPSTAPSDFQPQPVISIIQLFGWDDIICPQVVARYLSHVLQNSTLCEALSHSGYVSFQALTVRSWIRCVLQMYIKNLSGPDDLLIDKNLEEAVEKEYMKQLVKLTRLLFNLSEVKSIFSKAQVEYLSISEDPKKALVRFFEAVGVTYGNVQTLSDKSAMVTKSLEYLGEVLKYIKPYLGKKVFSAGLQLTYGMMGILVKSWAQIFATSKAQKLLFRIIDCLLLPHAVLQQEKELPAPMLSAIQKSLPLYLQGMCIVCCQSQNPNAYLNQLLGNVIEQYIGRFLPASPYVSDLGQHPVLLALRNTATIPPISSLKKCIVQVIRKSYLEYKGSSPPPRLASILAFILQLFKETNTDIYEVELLLPGILKCLVLVSEPQVKRLATENLQYMVKACQVGSEEEPSSQLTSVFRQFIQDYGMRYYYQVYSILETVATLDQQVVIHLISTLTQSLKDSEQKWGLGRNIAQREAYSKLLSHLGQMGQDEMQRLENDNT [MMS22L] | -0.523 | -0.109
13 | MMVESASETIRSAPSGQNGVGSLSGQADGSSGGATGTTASGTGREVTTGADSNGEMSPAELLHFQQQQALQVARQFLLQQASGLSSPGNNDSKQSASAVQVPVSVAMMSPQMLTPQQMQQILSPPQLQALLQQQQALMLQQLQEYYKKQQEQLHLQLLTQQQAGKPQPKEALGNKQLAFQQQLLQMQQLQQQHLLNLQRQGLVSLQPNQASGPLQTLPQAAVCPTDLPQLWKGEGAPGQPAEDSVKQEGLDLTGTAATATSFAAPPKVSPPLSHHTLPNGQPTVLTSRRDSSSHEETPGSHPLYGHGECKWPGCETLCEDLGQFIKHLNTEHALDDRSTAQCRVQMQVVQQLEIQLAKESERLQAMMAHLHMRPSEPKPFSQPLNPVPGSSSFSKVTVSAADSFPDGLVHPPTSAAAPVTPLRPPGLGSASLHGGGPARRRSSDKFCSPISSELAQNHEFYKNADVRPPFTYASLIRQAILETPDRQLTLNEIYNWFTRMFAYFRRNTATWKNAVRHNLSLHKCFVRVENVKGAVWTVDEREYQKRRPPKMTGSPTLVKNMISGLSYGALNASYQAALAESSFPLLNSPGMLNPGSASSLLPLSHDDVGAPVEPLPSNGSSSPPRLSPPQYSHQVQVKEEPAEAEEDRQPGPPLGAPNPSASGPPEDRDLEEELPGEELS [FOXP4] | 0.393 | -0.162
14 | MWEKMETKTIVYDLDTSGGLMEQIQALLAPPKTDEAEKRSRKPEKEPRRSGRATNHDSCDSCKEGGDLLCCDHCPAAFHLQCCNPPLSEEMLPPGEWMCHRCTVRRKKREQKKELGHVNGLVDKSGKRTTSPSSDTDLLDRSASKTELKAIAHARILERRASRPGTPTSSASTETPTSEQNDVDEDIIDVDEEPVAAEPDYVQPQLRRPFELLIAAAMERNPTQFQLPNELTCTTALPGSSKRRRKEETTGKNVKKTQHELDHNGLVPLPVKVCFTCNRSCRVAPLIQCDYCPLLFHMDCLEPPLTAMPLGRWMCPNHIEHVVLNQKNMTLSNRCQVFDRFQDTVSQHVVKVDFLNRIHKKHPPNRRVLQSVKRRSLKVPDAIKSQYQFPPPLIAPAAIRDGELICNGIPEESQMHLLNSEHLATQAEQQEWLCSVVALQCSILKHLSAKQMPSHWDSEQTEKADIKPVIVTDSSVTTSLQTADKTPTPSHYPLSCPSGISTQNSLSCSPPHQSPALEDIGCSSCAEKSKKTPCGTANGPVNTEVKANGPHLYSSPTDSTDPRRLPGANTPLPGLSHRQGWPRPLTPPAAGGLQNHTVGIIVKTENATGPSSCPQRSLVPVPSLPPSIPSSCASIENTSTLQRKTVQSQIGPPLTDSRPLGSPPNATRVLTPPQAAGDGILATTANQRFSSPAPSSDGKVSPGTLSIGSALTVPSFPANSTAMVDLTNSLRAFMDVNGEIEINMLDEKLIKFLALQRIHQLFPSRVQPSPGSVGTHQLASGGHHIEVQRKEVQARAVFYPLLGLGGAVNMCYRTLYIGTGADMDVCLTNYGHCNYVSGKHACIFYDENTKHYELLNYSEHGTTVDNVLYSCDFSEKTPPTPPSSIVAKVQSVIRRRRHQKQDEEPSEEAAMMSSQAQGPQRRPCNCKASSSSLIGGSGAGWEGTALLHHGSYIKLGCLQFVFSITEFATKQPKGDASLLQDGVLAEKLSLKPHQGPVLRSNSVP [PHF12] | -0.326 | 0.237
